Assays:
[1] = test system: Pab1p (poly(A)-binding protein) (Saccharomyces cerevisiae); assay: EMSA
[2] = test system: Pab1p (poly(A)-binding protein) (Saccharomyces cerevisiae); assay: single-molecule eIF1 dwell time, hyperbolic fit; settings: 5' cap, 3' poly(A) tail

Substance PAB1 mRNA, non-polyadenylated has a Kd [1] of 25 nM.

In the case of PAB1 mRNA, capped and poly(A)-tailed, the Kd [2] is reported as 13 nM.
